Measured values taken from the supplement of paper PMC7125110.
± gives the standard error. Variants at the floor of the assay were thinned out.

B1: glmS ribozyme (parent)
chain: AUAAAAGCGCCAGAACUACAGAAAUGUAGUUGACGAGGAGGAGGUUUAUCGAAUUUUCGGCGGAUGCCUCCAAA

Experiments:
Settings in all cases: with glucosamine-6-phosphate
[1] = variants of: B1; assay: self-cleavage kobs at 40 uM GlcN6P; higher = faster cleavage; RNA array
Outline: (§1)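 E. coli RNA polymerase transcribed barcoded ribozyme variants in situ on sequenced MiSeq chips, which were tracked via a hybridised Cy3 probe at 37 °C. Tiles were imaged over ~14 h after glucosamine-6-phosphate (40 μM to 10 mM) in HEPES/KCl/Mg(OAc)2 buffer was flowed in. Normalised per-tile medians were fit to one- or two-exponential decays for kobs, and kcat and KM came from weighted Michaelis–Menten fits.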

[2] = variants of: B1; assay: self-cleavage kobs at 160 uM GlcN6P; higher = faster cleavage; RNA array
Outline: as §1

[3] = variants of: B1; assay: self-cleavage kobs at 640 uM GlcN6P; higher = faster cleavage; RNA array
Outline: as §1

[4] = variants of: B1; assay: self-cleavage kobs at 10000 uM GlcN6P; higher = faster cleavage; RNA array
Outline: as §1

[5] = variants of: B1; assay: self-cleavage kobs at 2500 uM GlcN6P; higher = faster cleavage; RNA array
Outline: as §1

Variant | self-cleavage kobs at 40 uM GlcN6P [1] [s⁻¹] | self-cleavage kobs at 160 uM GlcN6P [2] [s⁻¹] | self-cleavage kobs at 640 uM GlcN6P [3] [s⁻¹] | self-cleavage kobs at 10000 uM GlcN6P [4] [s⁻¹] | self-cleavage kobs at 2500 uM GlcN6P [5] [s⁻¹]
C11U A15C U46A | < 1e-05 | < 1e-05 | < 1e-05 |  | 
C16A A36C G51A A53U U69G | 6.48e-05 ± 2.5e-05 |  |  | 4.91e-05 ± 1.6e-05 | 
G37C G59A | < 1e-05 | < 1e-05 |  | < 1e-05 | 
A15G G41A | 0.000137 ± 1.9e-05 | 0.000239 ± 4.1e-05 | 0.000767 ± 0.00025 | 0.00309 ± 0.00072 | 0.0013 ± 0.00038
G41U U45C U54G C67U C71G | < 1e-05 | < 1e-05 | < 1e-05 |  | 
G41A U69C | < 1e-05 | < 1e-05 |  |  | 
A14U A36C | < 1e-05 |  | < 1e-05 | < 1e-05 | 
U46C G60A | < 1e-05 | < 1e-05 | < 1e-05 |  | 
A33C G37C | < 1e-05 |  | < 1e-05 |  | < 1e-05
A6C A52C | < 1e-05 | < 1e-05 | < 1e-05 | < 1e-05 | < 1e-05
G32U A36G G59A | < 1e-05 |  |  | < 1e-05 | < 1e-05
C34G C50U | < 1e-05 |  | < 1e-05 | < 1e-05 | 
G7U C8A U47G G60U | < 1e-05 |  |  | < 1e-05 | 
G43C U47A | < 1e-05 |  | < 1e-05 |  | < 1e-05
G13C C50G G66C | 3.47e-05 ± 1.6e-05 |  |  |  | 
G13C A33U A39G U47C C61U | < 1e-05 |  |  |  | 
G7U U57A | < 1e-05 | < 1e-05 | < 1e-05 | < 1e-05 | 
G29U C34U A42C | < 1e-05 | < 1e-05 | < 1e-05 | < 1e-05 | < 1e-05
C11G G38U | < 1e-05 | < 1e-05 | < 1e-05 | < 1e-05 | 
G41C G66A U69C | < 1e-05 | < 1e-05 |  |  | 
A39C C50G A52C | < 1e-05 |  |  |  | 
G41A U49C | < 1e-05 | < 1e-05 | < 1e-05 |  | < 1e-05
